Assay results taken from the supplement of paper PMC9112550, “Optimization of the antimicrobial peptide Bac7 by deep mutational scanning” (BMC Biology, 2022).

What follows are sequences tested on Escherichia coli TOP10 (assay: shrunken log2 fold change of peptide-encoding DNA abundance (4.5 h post-induction vs induction); higher = less antimicrobial activity (less host growth inhibition)). Conditions: time post-induction: 4.5 h; library: site-saturation at positions 5, 18, 19, 20.
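Further: peptides expressed intracellularly from a pBAD plasmid library in pooled LB shake-flask culture, induced with 0.3% L-arabinose, DNA abundance read by NGS, three biological replicates, DESeq2 with apeglm shrinkage.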

Sequence	shrunken log2 fold change
RRIRARPPRLPRPRPRPKQQPRP	0.569
RRIRARPPRLPRPRPRPKRCPRP	0.079
RRIRARPPRLPRPRPRPKRFPRP	0.249
RRIRARPPRLPRPRPRPKRQPRP	0.0749
RRIRARPPRLPRPRPRPKRYPRP	0.159
RRIRARPPRLPRPRPRPKSVPRP	0.0188
RRIRARPPRLPRPRPRPKTAPRP	0.0481
RRIRARPPRLPRPRPRPKTGPRP	0.427
RRIRARPPRLPRPRPRPKTNPRP	0.436
RRIRARPPRLPRPRPRPKTQPRP	0.0119
RRIRARPPRLPRPRPRPKTRPRP	0.689
RRIRARPPRLPRPRPRPKWNPRP	0.286
RRIRARPPRLPRPRPRPLDHPRP	0.267
RRIRARPPRLPRPRPRPLDSPRP	0.166
RRIRARPPRLPRPRPRPLEKPRP	0.439
RRIRARPPRLPRPRPRPLFTPRP	0.0936
RRIRARPPRLPRPRPRPLFVPRP	0.0919
RRIRARPPRLPRPRPRPLGGPRP	1.01
RRIRARPPRLPRPRPRPLHEPRP	0.314
RRIRARPPRLPRPRPRPLHFPRP	0.211
RRIRARPPRLPRPRPRPLMVPRP	0.0926
RRIRARPPRLPRPRPRPLMYPRP	-0.165
RRIRARPPRLPRPRPRPLNNPRP	-0.346
RRIRARPPRLPRPRPRPLNVPRP	-0.234
RRIRARPPRLPRPRPRPLNWPRP	0.245

Sequence	shrunken log2 fold change
RRIRARPPRLPRPRPRPLPEPRP	0.542
RRIRARPPRLPRPRPRPLPKPRP	0.748
RRIRARPPRLPRPRPRPLSNPRP	0.25
RRIRARPPRLPRPRPRPLSVPRP	-0.0782
RRIRARPPRLPRPRPRPLVPPRP	0.125
RRIRARPPRLPRPRPRPLWWPRP	0.648
RRIRARPPRLPRPRPRPLYCPRP	0.765
RRIRARPPRLPRPRPRPMAKPRP	0.216
RRIRARPPRLPRPRPRPMFAPRP	0.52
RRIRARPPRLPRPRPRPMFFPRP	0.0123
RRIRARPPRLPRPRPRPMGDPRP	-0.0121
RRIRARPPRLPRPRPRPMHCPRP	0.0899
RRIRARPPRLPRPRPRPMHQPRP	0.0908
RRIRARPPRLPRPRPRPMHRPRP	-0.137
RRIRARPPRLPRPRPRPMKEPRP	-0.101
RRIRARPPRLPRPRPRPMKHPRP	-0.00244
RRIRARPPRLPRPRPRPMKVPRP	-0.0785
RRIRARPPRLPRPRPRPMKYPRP	-0.157
RRIRARPPRLPRPRPRPMLMPRP	0.044
RRIRARPPRLPRPRPRPMMDPRP	-0.203
RRIRARPPRLPRPRPRPMNDPRP	0.138
RRIRARPPRLPRPRPRPMPSPRP	0.341
RRIRARPPRLPRPRPRPMSEPRP	0.337
RRIRARPPRLPRPRPRPMSRPRP	-0.171
RRIRARPPRLPRPRPRPMSVPRP	0.121

Sequence	shrunken log2 fold change
RRIRARPPRLPRPRPRPMVHPRP	0.0572
RRIRARPPRLPRPRPRPMVIPRP	0.0235
RRIRARPPRLPRPRPRPMVSPRP	0.124
RRIRARPPRLPRPRPRPMYYPRP	-0.433
RRIRARPPRLPRPRPRPNCNPRP	-0.116
RRIRARPPRLPRPRPRPNCPPRP	-0.0021
RRIRARPPRLPRPRPRPNEAPRP	0.269
RRIRARPPRLPRPRPRPNETPRP	0.0696
RRIRARPPRLPRPRPRPNFYPRP	0.0801
RRIRARPPRLPRPRPRPNGSPRP	0.304
RRIRARPPRLPRPRPRPNHKPRP	-0.351
RRIRARPPRLPRPRPRPNHPPRP	-0.0147
RRIRARPPRLPRPRPRPNIWPRP	0.133
RRIRARPPRLPRPRPRPNKIPRP	-0.136
RRIRARPPRLPRPRPRPNKVPRP	-0.108
RRIRARPPRLPRPRPRPNNAPRP	0.00673
RRIRARPPRLPRPRPRPNNHPRP	-0.381
RRIRARPPRLPRPRPRPNPCPRP	0.0698
RRIRARPPRLPRPRPRPNRDPRP	-0.183
RRIRARPPRLPRPRPRPNRKPRP	0.131
RRIRARPPRLPRPRPRPNSLPRP	-0.207
RRIRARPPRLPRPRPRPNTIPRP	-0.0317
RRIRARPPRLPRPRPRPNTKPRP	-0.124
RRIRARPPRLPRPRPRPNVIPRP	-0.433
RRIRARPPRLPRPRPRPNWNPRP	-0.0314

Sequence	shrunken log2 fold change
RRIRARPPRLPRPRPRPNWRPRP	0.883
RRIRARPPRLPRPRPRPNYCPRP	-0.223
RRIRARPPRLPRPRPRPNYDPRP	-0.36
RRIRARPPRLPRPRPRPNYPPRP	-0.144
RRIRARPPRLPRPRPRPNYWPRP	0.0678
RRIRARPPRLPRPRPRPPAAPRP	1.12
RRIRARPPRLPRPRPRPPAIPRP	0.382
RRIRARPPRLPRPRPRPPAKPRP	1.12
RRIRARPPRLPRPRPRPPAVPRP	0.927
RRIRARPPRLPRPRPRPPCIPRP	-0.111
RRIRARPPRLPRPRPRPPCTPRP	0.164
RRIRARPPRLPRPRPRPPDGPRP	1.3
RRIRARPPRLPRPRPRPPDWPRP	1.23
RRIRARPPRLPRPRPRPPEYPRP	0.386
RRIRARPPRLPRPRPRPPGPPRP	0.703
RRIRARPPRLPRPRPRPPGSPRP	0.759
RRIRARPPRLPRPRPRPPHEPRP	1.29
RRIRARPPRLPRPRPRPPIFPRP	0.25
RRIRARPPRLPRPRPRPPKLPRP	0.683
RRIRARPPRLPRPRPRPPKYPRP	-0.109
RRIRARPPRLPRPRPRPPLWPRP	1.17
RRIRARPPRLPRPRPRPPMYPRP	-0.147
RRIRARPPRLPRPRPRPPNEPRP	0.716
RRIRARPPRLPRPRPRPPNSPRP	0.136
RRIRARPPRLPRPRPRPPQKPRP	1.29

Sequence	shrunken log2 fold change
RRIRARPPRLPRPRPRPPTKPRP	0.486
RRIRARPPRLPRPRPRPPTNPRP	0.678
RRIRARPPRLPRPRPRPPVEPRP	0.292
RRIRARPPRLPRPRPRPPVLPRP	0.214
RRIRARPPRLPRPRPRPPVTPRP	0.354
RRIRARPPRLPRPRPRPPYAPRP	0.251
RRIRARPPRLPRPRPRPPYSPRP	-0.0108
RRIRARPPRLPRPRPRPQADPRP	-0.119
RRIRARPPRLPRPRPRPQASPRP	0.242
RRIRARPPRLPRPRPRPQCLPRP	0.23
RRIRARPPRLPRPRPRPQDWPRP	0.556
RRIRARPPRLPRPRPRPQGRPRP	0.104
RRIRARPPRLPRPRPRPQKSPRP	0.0945
RRIRARPPRLPRPRPRPQLNPRP	-0.0125
RRIRARPPRLPRPRPRPQMGPRP	-0.0713
RRIRARPPRLPRPRPRPQMMPRP	0.129
RRIRARPPRLPRPRPRPQNGPRP	-0.106
RRIRARPPRLPRPRPRPQQVPRP	0.0996
RRIRARPPRLPRPRPRPQRTPRP	0.11
RRIRARPPRLPRPRPRPQRYPRP	-0.071
RRIRARPPRLPRPRPRPQSTPRP	0.0836
RRIRARPPRLPRPRPRPQSVPRP	-0.037
RRIRARPPRLPRPRPRPQTEPRP	0.292
RRIRARPPRLPRPRPRPQTGPRP	0.242
RRIRARPPRLPRPRPRPQTHPRP	0.491

Sequence	shrunken log2 fold change
RRIRARPPRLPRPRPRPQVHPRP	0.102
RRIRARPPRLPRPRPRPQVNPRP	-0.196
RRIRARPPRLPRPRPRPQVTPRP	0.356
RRIRARPPRLPRPRPRPQYNPRP	-0.334
RRIRARPPRLPRPRPRPRDRPRP	0.706
RRIRARPPRLPRPRPRPRESPRP	0.198
RRIRARPPRLPRPRPRPREVPRP	0.738
RRIRARPPRLPRPRPRPRFLPRP	0.371
RRIRARPPRLPRPRPRPRGNPRP	0.494
RRIRARPPRLPRPRPRPRHCPRP	-0.0733
RRIRARPPRLPRPRPRPRHKPRP	0.316
RRIRARPPRLPRPRPRPRHMPRP	-0.00102
RRIRARPPRLPRPRPRPRKIPRP	0.429
RRIRARPPRLPRPRPRPRKKPRP	0.404
RRIRARPPRLPRPRPRPRKSPRP	0.778
RRIRARPPRLPRPRPRPRLRPRP	0.514
RRIRARPPRLPRPRPRPRNAPRP	0.485
RRIRARPPRLPRPRPRPRNSPRP	-0.0469
RRIRARPPRLPRPRPRPRNTPRP	0.146
RRIRARPPRLPRPRPRPRPIPRP	0.719
RRIRARPPRLPRPRPRPRPLPRP	0.707
RRIRARPPRLPRPRPRPRPMPRP	0.771
RRIRARPPRLPRPRPRPRTEPRP	0.391
RRIRARPPRLPRPRPRPRVSPRP	0.492
RRIRARPPRLPRPRPRPRYAPRP	0.495
